Results taken from article PMC6692119 (Nature, 2017).

T1: Med17 (S. pombe Mediator subunit) (S. pombe, UniProt P87306 1-545)
T1 sequence (looked up): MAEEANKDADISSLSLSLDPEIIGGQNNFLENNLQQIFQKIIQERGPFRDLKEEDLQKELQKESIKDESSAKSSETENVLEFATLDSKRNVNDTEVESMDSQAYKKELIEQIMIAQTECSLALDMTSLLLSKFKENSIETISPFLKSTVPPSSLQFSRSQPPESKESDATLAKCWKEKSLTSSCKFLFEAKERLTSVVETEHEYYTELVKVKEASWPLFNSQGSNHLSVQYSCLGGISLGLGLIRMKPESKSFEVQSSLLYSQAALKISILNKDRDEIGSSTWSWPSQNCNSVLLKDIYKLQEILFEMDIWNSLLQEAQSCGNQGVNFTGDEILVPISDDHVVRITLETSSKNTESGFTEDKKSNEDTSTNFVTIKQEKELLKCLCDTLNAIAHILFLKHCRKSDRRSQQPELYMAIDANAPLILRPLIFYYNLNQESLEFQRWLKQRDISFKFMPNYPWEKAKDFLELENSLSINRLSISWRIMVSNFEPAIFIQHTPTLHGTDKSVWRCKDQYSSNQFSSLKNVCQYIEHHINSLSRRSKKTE

T2: Med18 (S. pombe Mediator subunit) (S. pombe, UniProt O14198 1-207)
T2 sequence (looked up): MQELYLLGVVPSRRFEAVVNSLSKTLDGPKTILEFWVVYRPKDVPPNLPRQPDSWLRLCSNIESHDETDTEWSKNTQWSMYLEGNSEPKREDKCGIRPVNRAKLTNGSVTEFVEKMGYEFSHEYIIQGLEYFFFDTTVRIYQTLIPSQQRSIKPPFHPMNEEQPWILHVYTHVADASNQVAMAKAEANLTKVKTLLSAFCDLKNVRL

T3: Med14 (S. pombe Mediator subunit) (S. pombe, UniProt Q9P7Y4 1-879)
T3 sequence (looked up): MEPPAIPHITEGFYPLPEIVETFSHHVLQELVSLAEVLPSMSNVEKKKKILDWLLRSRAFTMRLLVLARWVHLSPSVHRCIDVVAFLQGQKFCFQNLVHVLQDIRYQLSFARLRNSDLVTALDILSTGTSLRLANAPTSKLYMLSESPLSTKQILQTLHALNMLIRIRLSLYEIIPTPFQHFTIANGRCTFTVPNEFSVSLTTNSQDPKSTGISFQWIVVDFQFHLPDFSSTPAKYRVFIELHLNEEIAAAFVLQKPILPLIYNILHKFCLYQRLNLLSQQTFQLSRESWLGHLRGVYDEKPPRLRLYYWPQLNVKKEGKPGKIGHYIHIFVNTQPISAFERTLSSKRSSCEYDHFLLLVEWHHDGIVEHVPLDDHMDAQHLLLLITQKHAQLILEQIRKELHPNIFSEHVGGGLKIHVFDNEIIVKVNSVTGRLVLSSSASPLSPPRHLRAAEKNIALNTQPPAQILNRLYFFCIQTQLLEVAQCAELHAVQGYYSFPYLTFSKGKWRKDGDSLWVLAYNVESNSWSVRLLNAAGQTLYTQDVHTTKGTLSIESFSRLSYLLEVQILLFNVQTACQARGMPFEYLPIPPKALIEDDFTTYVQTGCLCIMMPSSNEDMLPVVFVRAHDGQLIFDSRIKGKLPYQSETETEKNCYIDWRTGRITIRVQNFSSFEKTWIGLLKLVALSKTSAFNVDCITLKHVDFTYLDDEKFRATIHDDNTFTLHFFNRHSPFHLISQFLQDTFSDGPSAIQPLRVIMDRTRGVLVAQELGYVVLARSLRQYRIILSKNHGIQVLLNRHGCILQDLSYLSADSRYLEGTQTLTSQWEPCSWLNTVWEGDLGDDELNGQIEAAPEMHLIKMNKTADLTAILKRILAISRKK


Assays:
Experiment in all cases: cryo-EM structure
[1] = molecular target: T1, Med17 (S. pombe Mediator subunit)
[2] = molecular target: T2, Med18 (S. pombe Mediator subunit)
[3] = molecular target: T3, Med14 (S. pombe Mediator subunit)

| Binder | binding result [1] | binding result [2] | binding result [3] |
| --- | --- | --- | --- |
| Med31 (S. pombe Mediator subunit) (natural protein, UniProt Q9USH1 1-139, looked up) METKWLLSKVPDDKSRFEIELEFVQMLSNPWYLNFLAQHKYFEDEAFLQYLEYMEYWREPEYVKFIIYPTCLHMLTLLKNPQFRNDISRADLSKQVNDEIYYEWLGKGLQQYGSADDATLSQPQQEEDEKKVDVKKENE | binds | – | – |
| Med20 (S. pombe Mediator subunit) (natural protein, UniProt Q10317 1-193, looked up) MPVHGVIYYSSPSMATFLSPAQDNLVRTYFAQHLKKWVVQYKLYRNAVTPKTLEFLKQNINPSMLACVDEATMIDAEPELEDIIVRTKLWNFRQSFTIEGSIYEVGSFKVAIANVLQKSVWKGILFHVTYDGTESVDLARPIIQEFFLKCFLQNNKSVTPVYESFFNQPRHSLDSKLLLQLFKQRIDTVSQRT | – | binds | – |
| Med27 (S. pombe Mediator subunit) (natural protein, UniProt Q10477 1-273, looked up) MSLEEQRTRDELKHKLLDLNQLHEQLAELRTICPSLLKLLHPETGTSRKFEKSAQEAIEKVNSFYTHLKSSQNVFDYAEKSLQADSSNLLPTYLYNSEDLSNDTENNETKSINGKSALDLKEPHHSELHDNDNFQNSDINIESFKGDIEASGSILTTHENKSFTLKLANELEFIFFHDTRGKFSVYCSSSKDDAITFSINRNNNFLGNLWSLMPKILDYQHLYSKPCDFCKSLISPVYLELPSVRRNANSTVKPTSKDILALHAECVPAQSDL | binds | – | binds |
| Med7-TAP (S. pombe Mediator subunit) (natural protein, UniProt O60104 1-376, looked up) MEPNEGVQLFSAFPPPPPYYKLFTRENIEKVISNMEKEAKHEDDANTLQPKTEEEIESLAKLFKKPSCLTSGTYQMFGDTWRLDEAIPSLKEFGIPELYKDIKDGEDEIEVVEYDPKSNAIVGTSFTRVHDYDKNSPIENEKILEDDQHTAMKEKDNESDKTMKDVEEKTEPSLKKEEEDIQMKEPLDSQDTGAVSASSVNEGFRADQKSKDGETSDLIKIPRRAYELRFLSRSLMLNFLELLGIMAKAPEQFPSKVENIRVLLLNLHHLINDYRPHQSRESLIMLLEKQLKHEESQVELLRTHNRQMTETLEKYKSLDFNMEKEGDVIQQLKSSIKKPLSGAEDEQKSRSMFSKNDEKLKKSLELMEDVIKRDLS | binds | – | – |
